Results on two molecules are retold here after article PMC6780499, “Characterization, Recombinant Production and Structure-Function Analysis of NvCI, A Picomolar Metallocarboxypeptidase Inhibitor from the Marine Snail Nerita versicolor” (Marine Drugs, 2019).

Series [1] concerns the target T1, bTAFI (Bos taurus, UniProt Q2KIG3).
T1 sequence (Q2KIG3 115-423): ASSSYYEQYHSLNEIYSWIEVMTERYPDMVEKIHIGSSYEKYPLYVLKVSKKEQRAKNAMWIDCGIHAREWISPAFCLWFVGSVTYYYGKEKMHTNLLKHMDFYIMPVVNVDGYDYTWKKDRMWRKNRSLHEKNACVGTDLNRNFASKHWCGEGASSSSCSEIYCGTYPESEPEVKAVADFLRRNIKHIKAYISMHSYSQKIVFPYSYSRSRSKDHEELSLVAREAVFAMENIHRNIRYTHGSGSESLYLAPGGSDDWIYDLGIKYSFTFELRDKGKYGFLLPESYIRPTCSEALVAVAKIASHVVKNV
Description: Ki determination, tight-binding inhibition of metallocarboxypeptidase. The class given is biochemical, bovine. Conditions: tight-binding equation fit; substrate AAFA 0.1mM; enzyme-inhibitor mixture not preincubated; 37 °C; means (n = 3) ± SD. As for the experimental part: Inhibitory activities against CPA- and CPB-type forms (bovine and human variants of CPA1, CPA2, CPA4, CPB1, and TAFI) were assayed for all extracts, subject to the experimental conditions that enzyme (E), substrate (S) and inhibitor (I) concentrations as well as the [I]/[E] ratio and preincubation time followed the requirements for tight-binding inhibitor assays. Similar approaches were followed to measure the activities of proteases of different catalytic types, like pepsin, papain, trypsin and subtilisin [45, 46, 47, 48]. All assays were performed in triplicate at 25 °C in a multiplexed manner. For 96-well assays an iEMS spectrophotometer reader/dispenser FM (Labsystems, Finland) was used with a final reaction volume of 250 μL. […] The reactions were followed at 5 s intervals for 5 min and recorded as initial velocities. […]
The Ki values of natural and recombinant NvCI against bCPA1, hCPA1, hCPA2, rat CPA3, hCPA4, hCPB1, bTAFI, hTAFI, hCPD and hCPZ were determined by measuring the enzymatic residual activity (Vi/V0 = a) at different inhibitor concentrations and using a fixed enzyme and substrate concentrations as described above, where vi and v0 are the fraction of enzymatic activity in the presence and absence of inhibitor, respectively, in terms of initial velocities. […]

Series [2] has as its system bCPA and hCPA1. In words: Competitive (double) titration with the tight-binding inhibitor TCI. Conditions: competing assays with the similar tight-binding inhibitor TCI. The format is biochemical.
The subject of series [3] is serine, cysteine and aspartic proteases. Description: Inhibition of proteases of other catalytic types. The format is biochemical. The note with it: even at tenfold excess; pepsin, papain, trypsin and subtilisin assays, 25 °C, triplicate. How it is done: Inhibitory activities against CPA- and CPB-type forms (bovine and human variants of CPA1, CPA2, CPA4, CPB1, and TAFI) were assayed for all extracts, subject to the experimental conditions that enzyme (E), substrate (S) and inhibitor (I) concentrations as well as the [I]/[E] ratio and preincubation time followed the requirements for tight-binding inhibitor assays. Similar approaches were followed to measure the activities of proteases of different catalytic types, like pepsin, papain, trypsin and subtilisin [45, 46, 47, 48]. All assays were performed in triplicate at 25 °C in a multiplexed manner. For 96-well assays an iEMS spectrophotometer reader/dispenser FM (Labsystems, Finland) was used with a final reaction volume of 250 μL. For cuvette assays, a Cary 400 Bio spectrophotometer (Varian Inc., Palo Alto, CA, USA) spectrophotometer was used with a final reaction volume of 1 ml. The reactions were followed at 5 s intervals for 5 min and recorded as initial velocities. In the protease inhibition assays, mixtures of activity buffer, biological sample and enzyme were preincubated at 25 °C for 10min, before substrate addition. The assay conditions were as follows: for CPA-like enzymes, 7.0nM CPA, 0.1mM AAFP substrate in 20mM Tris-HCl pH 7.5, 500mMNaCl, 1% v/v dimethyl sulfoxide (DMSO), 0.05% w/v BRIJ-35 was used. […]

Series [4] can be described thus: Folding state and stability by CD at different pH and temperature. The format is physicochemical. The note with it: pH 2 to 10, 25 °C to 90 °C, 0.05–0.06 mg/ml. As for the experimental part: The folding state and stability of NvCI was investigated on the natural and recombinant forms by CD. The proteins, either in 0.1% TFA (v/v) or 20mM sodium phosphate (pH 2.0, 6.5 or 8.0) were analyzed at 0.05–0.06 mg/ml, from 25 to 90 °C in a Jasco J-710 spectropolarimeter (Pfugnstadt, Germany) in the 190–320nm range. Additional analyses were made under folding conditions (20mM sodium phosphate, pH 8.0) in the absence and presence of reducing reagent (1 or 20 mM DTT), a redox-pair (1mM Cys + 0.5mM cystine), and either absence or presence of denaturant (8 M urea). Complementary ^1H-NMR experiments were performed in a 500MHz NMR (Bruker Advance) on rNvCI in 20 mM sodium phosphate (pH 2.0 and 6.5), in 90% ^1H2O + 10% D2O, at 298 K. DQF-COSY, NOESY, TOCSY and HSQC spectra were obtained in a TCI cryoprobe of 5mm and used for provisional backbone assignment.

Series [5] has as its target T2, bTAFI (Bos taurus (Bovine), UniProt Q2KIG3).
T2 chain: T1 sequence (Q2KIG3 115-423)
In words: Ki, residual activity.

Series [6] addresses T3, pCPB (Sus scrofa (Pig), UniProt P09955).
T3 chain: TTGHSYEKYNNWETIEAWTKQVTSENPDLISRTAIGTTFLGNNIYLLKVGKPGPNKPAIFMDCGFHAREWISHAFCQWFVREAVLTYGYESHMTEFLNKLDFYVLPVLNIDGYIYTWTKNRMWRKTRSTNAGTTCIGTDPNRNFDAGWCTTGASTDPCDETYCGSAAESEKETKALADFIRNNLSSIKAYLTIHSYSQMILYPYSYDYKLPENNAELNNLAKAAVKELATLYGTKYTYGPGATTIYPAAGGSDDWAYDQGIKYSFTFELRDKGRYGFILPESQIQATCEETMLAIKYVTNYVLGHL
In words: Ki, residual activity.

No end group written: not given here.

On to “NvCI: 53-residue, three-disulphide proteinaceous metallocarboxypeptidase inhibitor from the marine snail Nerita versicolor; major isoform; UniProt P86912 (FHVPDDRPCINPGRCPLVPDATCTFVCKAADNDFGYECQHVWTFEGQRVGCYA; disulfide (positions not given here); also: three disulphides, pairing not given here; UniProt P86912 1-53, looked up)”, for which the Ki in series [1] was determined as 0.121 ± 0.0201 nM. In series [2], the “inhibitory capability / maximum potential activity by competitive titration” value turned out to be 50.4%. Besides, in series [3], the “inhibition of serine, cysteine and aspartic proteases” value is “unable to inhibit”. The “stability by CD spectra” value in series [4] is “great stability and capacity to recover its spectral properties when returned to room conditions”.

B1: NvCI (protein)
chain: FHVPDDRPCINPGRCPLVPDATCTFVCKAADNDFGYECQHVWTFEGQRVGCYA
modifications: disulfide (positions not given here); not fully specified (bridges); ends not checked
In the case of B1, the Kd came to 0.0841 nM in series [5] and 0.335 nM in series [6].
